The target in one experiment is HLA-A*1101 (Homo sapiens, UniProt P04439, A114D/D185E/E176A/F33Y/L180Q/S129P/T187R). The experiment can be described thus: purified HLA class I binding assay, A*1101. Particulars: for A*1101 (HIV A11 Motif Peptides with Binding Information): binding value to purified HLA-A*1101 in Table XVII; for A*1101 binding: HIV A11 motif peptides (GAG).
The target of a further experiment is T1, HLA-B*0702 (Homo sapiens, UniProt P01889).
T1 construct: endogenous in cells; host or cells: GM3107
The experiment can be described thus: purified HLA class I binding assay, B*0702. Conditions: for B*0702 binding (HIV B07 Super Motif Peptides with Binding Information): purified HLA-B*0702, binding value without unit; for B*0702 (binding information): HIV B07 supermotif peptides, binding value for purified HLA-B*0702, unit not given.

In another experiment the target is T2, HLA-A*0301 (Homo sapiens, UniProt P04439).
T2 construct: endogenous in cells; host or cells: GM3107
Description: purified HLA class I binding assay, A*0301. Conditions: for A*0301 binding information: HIV A03 supermotif peptides; for A0301 (binding information): HIV A03 motif peptides; for A0301 (binding information) / A0301 (binding information, HIV A03 motif peptides): Table XVI.

Another experiment has as its target HLA-A*0201 (Homo sapiens, UniProt P04439, D140Y/D185E/D98H/E176V/E277Q/G131W/G231S/I119V/I121R/I166T/I218V/L300P/L318F/N151K/N90K/P208A/P217A/Q86G/Q94H/R138H/R169H/T345S). The experiment can be described thus: purified HLA class I binding assay, A*0201. Particulars: Table VIII, unit not given.
[1] abbreviates: binding value to purified HLA-A*0301, unit not given.
Setting [2] is: HIV A02 Super Motif Peptides with Binding Information.
The mark [3] stands for this setting: HIV POL-derived peptides, unit not given.
Setting [4] is: Table XVII, HIV A11 motif peptides, binding value A*1101, unit not given.
Setting [5] is: HIV POL-derived A03 motif peptides, binding value for purified HLA-A*0301, unit not given.

In the case of AANREIKLGK, the “A*1101 (HIV A11 Motif Peptides with Binding Information)” value in the experiment with HLA-A*1101 (unit not given) worked out at 0.0016.

As to ANRIETKLGK, the “A*1101 (HIV A11 Motif Peptides with Binding Information)” value with HLA-A*1101 (unit not given) was found to be 0.0001. Regarding APTKAKRRVV, the “B*0702 binding (HIV B07 Super Motif Peptides with Binding Information)” value (shortened to “B*0702 binding”) at HLA-B*0702 was determined as 0.1200. Consider ATLYCVIIQR, for which the “A*1101 (binding information)” value in the experiment with HLA-A*1101 (HIV A03 supermotif peptides, Table IX, unit not given) was found to be 0.7100. Moreover, the “A*1101 binding” value in the experiment with HLA-A*1101 (Table XVII, unit not given) is 0.7100. The “A*0301 binding information” value with HLA-A*0301 (Table IX, unit not given) was 0.0150. In addition, the “A0301 (HIV A03 Motif Peptides with Binding Information)” value with HLA-A*0301 (setting [1]) is recorded as 0.0150. ATWIPCWEFV: the “A*0201 (binding information)” value in the experiment with HLA-A*0201 (HIV A02 supermotif peptides) amounted to 0.0013. On to AVDLSIIFLK, for which, in the experiment with HLA-A*1101 (HIV A11 motif peptides, Table XVII, unit not given), the “A*1101 (binding information)” value worked out at 1.1000. For the same sequence, the “A0301 (binding information)” value in the experiment with HLA-A*0301 (setting [1]) amounted to 0.0740. For the sequence CVKLTPLCV, the “A*0201 (binding information)” value with HLA-A*0201 (setting [2]) turned out to be 0.0002. On to CVKLTPLCVT, for which the “A*0201 (binding information)” value in the experiment with HLA-A*0201 (HIV A02 super motif peptides) was found to be 0.0001. Turning to DPEIVMIISF, in the experiment with HLA-B*0702, the “B*0702 binding” value was 0.0001. On to DTEVIINVWA, for which the “A*0201 (binding information)” value with HLA-A*0201 (setting [2]) came out at 0.0001. As to DTEYIINVWAT, the “A*0201 (binding information)” value in the experiment with HLA-A*0201 (HIV A02 super motif peptides) is 0.0001.

With DVKQLTEAVQ, the “A*1101 (HIV A11 Motif Peptides with Binding Information)” value with HLA-A*1101 (unit not given) came to 0.0240. Besides, in the experiment with HLA-A*0301 (setting [3]), the “A0301 (binding information, HIV A03 motif peptides)” value stood at 0.0048. Regarding EILKEPVIIGV, the “A*0201 (binding information)” value in the experiment with HLA-A*0201 (HIV A02 supermotif peptides) was 0.0007.

Regarding ELQAIIILAL, the “A*0201 (binding information)” value with HLA-A*0201 (HIV A02 super motif peptides) is recorded as 0.0001. For the sequence EPFKNLKTGK, the “B*0702 (binding information)” value in the experiment with HLA-B*0702 is on record as 0.0001. Take EPFRDYVDRP: in the experiment with HLA-B*0702, the “B*0702 binding” value stood at 0.00012. With EPFREYVIIRF, in the experiment with HLA-B*0702, the “B*0702 binding” value is 0.0001. Still for that read-out and setting: in the case of EPIPIIIYCA it was 0.0001. EPIVGAEIP: the “B*0702 (binding information)” value with HLA-B*0702 was determined as 0.0001. Still for that read-out and setting: in the case of EPPFLWMGYE it was 0.0001; in that of EPVDPRLEPW, 0.0001.

For the sequence EPVIIGVYY, the “B*0702 binding” value in the experiment with HLA-B*0702 is listed as 0.0001. In the case of EVIINVWATIIA, the “A*0201 (binding information)” value with HLA-A*0201 (HIV A02 super motif peptides) was determined as 0.0001. As to FLGKIWPSIIK, the “A*1101 binding” value with HLA-A*1101 (Table XVII, unit not given) was 0.0013. In addition, in the experiment with HLA-A*0301 (binding value unit not given), the “A0301 (binding information)” value is reported as 0.0200. FVNIPPLVK: the “A*1101 (binding information)” value with HLA-A*1101 (setting [4]) was 0.0660. In the case of GIIQAQVDK, in the experiment with HLA-A*0301 (setting [3]), the “A0301 (binding information, HIV A03 motif peptides)” value was 0.0009.

For the sequence GIPIIPAGLK, the “A*1101 (binding information)” value in the experiment with HLA-A*1101 (setting [4]) is given as 0.0650. GIPIIPAGLKK: in the experiment with HLA-A*1101 (setting [4]), the “A*1101 (binding information)” value came to 0.1700. Moreover, the “A0301 (HIV A03 Motif Peptides with Binding Information)” value with HLA-A*0301 (setting [5]) turned out to be 0.0110. As for GPAATLEEMM, the “B*0702 binding” value at HLA-B*0702 is reported as 0.0020.

For GPGIIKARV, the “B*0702 binding” value in the experiment with HLA-B*0702 turned out to be 0.0002. Turning to GPGIIKARVLA, the “B*0702 binding” value in the experiment with HLA-B*0702 worked out at 0.0002. In the case of GPKVKQWPL, on HLA-B*0702, the “B*0702 (binding information)” value worked out at 0.0150. Still for that read-out and setting: in the case of HPAGLKKKKS it was 0.0001. HPVIIAGPI: the “B*0702 binding” value with HLA-B*0702 is listed as 0.0012. With IIGVYYDPSK, the “A*1101 (binding information)” value with HLA-A*1101 (setting [4]) was 0.0001. Regarding IIPDKWTVQPI, the “B*0702 (binding information)” value with HLA-B*0702 came out at 0.0012.

Consider IIPGSQPKTA, for which the “B*0702 (binding information)” value with HLA-B*0702 is 0.0007. The same measure, in the same setting: in the case of IIPRISSEVHI it was 0.0330. In the case of IIPVIIAGPIA, in the experiment with HLA-B*0702, the “B*0702 binding” value amounted to 0.0590. With IIVASGYIEA, the “A0301 (HIV A03 Motif Peptides with Binding Information)” value with HLA-A*0301 (setting [5]) is on record as 0.0003.

As for ILQQLLFIIIF, the “A0301 (binding information, HIV A03 motif peptides)” value in the experiment with HLA-A*0301 (binding value for HLA-A*0301, unit not given) is reported as 0.0130. Consider IPIIIYCAPA, for which the “B*0702 binding” value in the experiment with HLA-B*0702 amounted to 0.0130. With IPMFSALSIEGA, the “B*0702 binding” value with HLA-B*0702 is 0.0004. On to IPVGEIYKRW, for which, on HLA-B*0702, the “B*0702 binding” value stood at 0.0002. On to ISPILTVPVK, for which, in the experiment with HLA-A*1101 (setting [4]), the “A*1101 (binding information)” value came to 0.0310. As for IVASCDKCQLK, the “A*1101 (binding information)” value with HLA-A*1101 (HIV A03 supermotif peptides, binding value, no unit given) is 0.1000; in the experiment with HLA-A*1101 (setting [4]), 0.1000. Also, in the experiment with HLA-A*0301 (binding value, no unit given), the “A*0301 binding information” value is on record as 0.0970. Moreover, the “A0301 (HIV A03 Motif Peptides with Binding Information)” value in the experiment with HLA-A*0301 (setting [5]) stood at 0.0970.

For the origin of these results see patent US20050271676A1, “Inducing cellular immune responses to human immunodeficiency virus-1 using peptide and nucleic acid compositions” (Epimmune Inc., priority 1993, published 2005).
